Experimental data from patent US20210246218A1 (LYVGEN BIOPHARMA SUZHOU, published 2021).
“And” between values parts separate entries of the source, which are not always exact repeats. Identical values can stand only once.

What was measured:
mouse CD137 on CHO cells = target: T1, mouse CD137 on CHO cells (mouse, UniProt P20334 24-256); experiment: flow cytometry on CHO cells over-expressing the target
T1 construct: whole, on cells; also called murine cellular CD137
Protocol: (§1) The cells were resuspended in ice cold assay buffer at 2*10\hat{ }6/mL and transferred to 96-well V-bottom plate with 100 μL/well. […] The plate was incubated in the dark for 2 hours at 4° C. The cells were washed 3 times by centrifugation at 1000 g for 3 min and resuspended in 100 μL ice cold assay buffer containing goat F(ab′)₂ anti-human IgG-Fc (PE) or PE goat anti-mouse IgG antibody. The plate was incubated in the dark for another 1 hour at 4° C. The cells were washed 2 times by centrifugation at 1000 g for 3 min and resuspended in ice cold assay buffer containing 2% PFA and analyzed on the flow cytometer immediately.

human LAG-3 on CHO cells = target: T2, human LAG-3 on CHO cells (human, UniProt P18627 23-525); experiment: as above
T2 construct: whole, on cells
T2 sequence (looked up): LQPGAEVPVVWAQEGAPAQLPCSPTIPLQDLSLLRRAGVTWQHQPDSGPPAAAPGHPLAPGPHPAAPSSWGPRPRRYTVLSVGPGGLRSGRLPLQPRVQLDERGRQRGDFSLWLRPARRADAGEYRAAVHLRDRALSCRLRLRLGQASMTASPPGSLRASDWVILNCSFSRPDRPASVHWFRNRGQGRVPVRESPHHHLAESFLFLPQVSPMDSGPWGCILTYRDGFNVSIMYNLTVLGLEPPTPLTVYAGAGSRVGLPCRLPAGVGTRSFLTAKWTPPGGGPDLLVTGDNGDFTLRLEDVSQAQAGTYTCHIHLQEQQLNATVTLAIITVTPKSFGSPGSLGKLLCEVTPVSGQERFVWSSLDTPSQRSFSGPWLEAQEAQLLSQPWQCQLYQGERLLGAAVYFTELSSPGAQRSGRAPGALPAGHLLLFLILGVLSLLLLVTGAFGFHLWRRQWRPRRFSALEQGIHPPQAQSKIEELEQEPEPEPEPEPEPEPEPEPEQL
Protocol: as §1

human GITR on CHO cells = target: T3, human GITR on CHO cells (human, UniProt Q9Y5U5 26-241); experiment: as above
T3 construct: whole, on cells
T3 sequence (looked up): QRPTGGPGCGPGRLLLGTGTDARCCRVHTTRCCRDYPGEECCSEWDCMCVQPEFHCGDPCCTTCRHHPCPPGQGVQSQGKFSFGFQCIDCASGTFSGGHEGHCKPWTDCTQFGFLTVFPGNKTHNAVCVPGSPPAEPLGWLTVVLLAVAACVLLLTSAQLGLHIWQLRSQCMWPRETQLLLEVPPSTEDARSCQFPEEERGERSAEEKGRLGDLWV
Protocol: as §1

human CD20 on CHO cells = target: T4, human CD20 on CHO cells (human, UniProt P11836 1-297); experiment: as above
T4 construct: whole, on cells
T4 sequence (looked up): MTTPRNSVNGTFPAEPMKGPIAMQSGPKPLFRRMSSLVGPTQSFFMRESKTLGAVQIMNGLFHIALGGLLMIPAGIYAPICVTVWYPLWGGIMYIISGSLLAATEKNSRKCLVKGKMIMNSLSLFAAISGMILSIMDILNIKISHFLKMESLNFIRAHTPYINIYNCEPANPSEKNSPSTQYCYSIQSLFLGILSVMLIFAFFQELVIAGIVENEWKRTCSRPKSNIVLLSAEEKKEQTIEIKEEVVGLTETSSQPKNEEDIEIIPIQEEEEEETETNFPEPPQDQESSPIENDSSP
Protocol: as §1

human CD47 on CHO cells = target: T5, human CD47 on CHO cells (human, UniProt Q08722 19-323); experiment: as above
T5 construct: whole, on cells
Protocol: as §1

human CD27 on CHO cells = target: T6, human CD27 on CHO cells (human, UniProt P26842 20-260); experiment: as above
T6 construct: whole, on cells
T6 sequence (P26842 20-260): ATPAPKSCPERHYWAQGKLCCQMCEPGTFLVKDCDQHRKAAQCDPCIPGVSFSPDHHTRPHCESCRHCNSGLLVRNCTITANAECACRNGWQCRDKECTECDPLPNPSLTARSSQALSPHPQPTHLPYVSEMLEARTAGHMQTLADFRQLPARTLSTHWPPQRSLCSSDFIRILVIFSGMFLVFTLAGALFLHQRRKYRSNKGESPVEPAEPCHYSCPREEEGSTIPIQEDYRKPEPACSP
Protocol: as §1

human LTBR on CHO cells = target: T7, human LTBR on CHO cells (human, UniProt P36941 31-435); experiment: as above
T7 construct: whole, on cells
T7 sequence (P36941 31-435): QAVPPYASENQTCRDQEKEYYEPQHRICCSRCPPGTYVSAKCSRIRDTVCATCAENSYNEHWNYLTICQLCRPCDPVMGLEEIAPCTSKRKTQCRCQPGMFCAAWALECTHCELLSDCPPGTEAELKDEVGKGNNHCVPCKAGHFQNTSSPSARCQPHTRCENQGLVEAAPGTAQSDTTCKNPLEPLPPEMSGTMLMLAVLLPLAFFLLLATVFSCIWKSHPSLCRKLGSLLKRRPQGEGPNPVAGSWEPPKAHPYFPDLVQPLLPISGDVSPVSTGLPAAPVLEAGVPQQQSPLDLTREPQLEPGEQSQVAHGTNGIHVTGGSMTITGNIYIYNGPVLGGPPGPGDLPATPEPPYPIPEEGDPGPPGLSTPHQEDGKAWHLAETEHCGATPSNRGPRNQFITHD
Protocol: as §1

human BTLA on CHO cells = target: T8, human BTLA on CHO cells (human, UniProt Q7Z6A9 31-289); experiment: as above
T8 construct: whole, on cells
Protocol: as §1

human CD137 on cells [1] = target: T9, human CD137 on cells (human, UniProt Q07011 24-255); experiment: flow cytometry on CHO cells over-expressing human CD137; average, n=6
T9 construct: whole, on cells; also called CHO-human CD137; CHO cells over-expressing human CD137
Protocol: (§2) CHO cells over-expressing human or cynomolgus monkey CD137 and CHO parental cells were harvested by centrifugation at 1000 g for 3 minutes. The cells were resuspended in ice cold assay buffer at 2*10\hat{ }6/mL and transferred to 96-well V-bottom plate with 100 μL/well. […] The plate was mixed and incubated in the dark for 2 hours at 4° C. The cells were washed 3 times by centrifugation at 1000 g for 3 min and resuspended in ice cold assay buffer containing goat F(ab′)₂ anti-human IgG-Fc (PE), 100 μL/well. The plate was incubated in the dark for another 1 hour at 4° C. The cells were washed 2 times by centrifugation at 1000 g for 3 min and resuspended in ice cold assay buffer containing 2% PFA. The cells were then subjected to the flow cytometer immediately.
(§3) Mean fluorescence intensity (MFI) was calculated from the total cell population in the FCM experiments. Graphpad 7.0, “[Agonist] vs. response—Variable slope (four parameters)” was used to plot the binding MFI in dose response and to calculate FCM binding EC₅₀ values.
Target sequence in this assay (Q07011 24-255): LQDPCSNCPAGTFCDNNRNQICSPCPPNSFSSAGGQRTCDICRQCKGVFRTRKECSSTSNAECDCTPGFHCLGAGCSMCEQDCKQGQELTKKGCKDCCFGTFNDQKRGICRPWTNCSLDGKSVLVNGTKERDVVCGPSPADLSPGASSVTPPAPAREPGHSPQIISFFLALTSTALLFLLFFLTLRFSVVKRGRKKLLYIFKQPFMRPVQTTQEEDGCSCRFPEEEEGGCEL

[2] = target: T10, cynomolgus monkey CD137 on cells (cynomolgus monkey, UniProt A9YYE7 24-254); experiment: flow cytometry on CHO-cynomolgus monkey CD137 cells, PE anti-human IgG-Fc
T10 construct: whole, on cells; also called CHO-cynomolgus monkey CD137
T10 sequence (A9YYE7 entry or part of it): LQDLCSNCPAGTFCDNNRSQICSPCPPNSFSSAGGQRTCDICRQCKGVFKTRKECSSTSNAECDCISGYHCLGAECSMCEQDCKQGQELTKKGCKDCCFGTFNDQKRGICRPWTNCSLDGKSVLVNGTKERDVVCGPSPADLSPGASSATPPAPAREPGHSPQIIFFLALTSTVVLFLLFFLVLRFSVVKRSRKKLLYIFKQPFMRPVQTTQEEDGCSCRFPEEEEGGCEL
Protocol: as §2, §3

human CD137 on cells [3] = target: T9, human CD137 on cells; experiment: flow cytometry on human PBMC pre-activated with anti-CD3, gate on CD8+ T cells (endogenous CD137)
Protocol: To obtain activated T cells in human PBMC, a 24-well plate was coated with 300 μL DPBS containing 2 μg/mL AffiniPure goat anti-mouse IgG, Fcγ fragment specific at 4° C. overnight. The plate was washed 3 times with DPBS. The antibody OKT3 was added to the plate at 1 μg/mL, 100 μL/well. The plate was incubated at 37° C. for 1 hour. A freshly thawed vial of human PBMCs was transferred into a 50 mL tube containing 25 mL pre-warmed culture medium (RPMI1640 containing 10% FBS), and spun at 250 g for 10 min The cell pellet was resuspended in 2 mL complete culture medium (culture medium containing 50 uM 2-Me) and the cell density was adjusted to 3.3*10\hat{ }6 cells/mL in the complete culture medium and then 900 μL/well cell suspension was transferred to the plate. The culture was incubated at 37° C. with 5% CO₂ for about 48 hours. After the incubation, the cells were harvested and washed once with DPBS. The cell pellet was resuspended in cold assay buffer and the cell density was adjusted to 2*10\hat{ }6 cells/mL. 100 μL of the cell suspension was transferred to a 96-well v-bottom plate. […] The plate was incubated in the dark for 30 minutes at 4° C. […] After incubation in the dark for 5 minutes at 4° C., the cells were analyzed on the flow cytometer immediately.

T1 sequence (P20334 24-256): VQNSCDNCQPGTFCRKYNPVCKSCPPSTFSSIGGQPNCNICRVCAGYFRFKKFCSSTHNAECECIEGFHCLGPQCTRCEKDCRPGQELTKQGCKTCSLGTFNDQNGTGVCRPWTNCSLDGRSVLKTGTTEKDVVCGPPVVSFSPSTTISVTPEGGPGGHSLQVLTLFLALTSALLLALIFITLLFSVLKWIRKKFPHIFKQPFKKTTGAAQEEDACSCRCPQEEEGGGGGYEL

binding result (mouse CD137 on CHO cells): no binding | binding result (human LAG-3 on CHO cells): no binding | binding result (human GITR on CHO cells): no binding | binding result (human CD20 on CHO cells): no binding | binding result (human CD47 on CHO cells): no binding | binding result (human CD27 on CHO cells): no binding | binding result (human LTBR on CHO cells): no binding | binding result (human BTLA on CHO cells): no binding | EC50 (human CD137 on cells [1]): 0.35 nM and 0.0497 µg/mL | EC50 (read off the curve) [2]: ~0.03 mg/L | EC50 (read off the curve) (human CD137 on cells [3]): ~0.03 mg/L
B1: Clone 3712-IgG1v (IgG1v/kappa) (antibody)
heavy: QVQLVQSGAEVKKPGASVKVSCKASGYTFAGFEMHWVRQAPGQGLEWMGAIDPKTGGTDYNQKFKDRVTMTRDTSISTAYMELSRLRSDDTAVYYCARDLGYFDVWGQGTLVTVSSASTKGPSVFPLAPSSKSTSGGTAALGCLVKDYFPEPVTVSWNSGALTSGVHTFPAVLQSSGLYSLSSVVTVPSSSLGTQTYICNVNHKPSNTKVDKKVEPKSCDKTHTCPPCPAPELLGPSVFLFPPKPKDTLMISRTPEVTCVVVDVEHEDPEVKFNWYVDGVEVHNAKTKPREEQYNSTYRVVSVLTVLHQDWLNGKEYKCKVSNKALPAPIEKTISKAKGQPREPQVYTLPPSREEMTKNQVSLTCLVKGFYPSDIAVEWESNGQPENNYKTTPPVLDSDGSFFLYSKLTVDKSRWQQGNVFSCSVMHEALHNHYTQKSLSLSPGK
light: DIQMTQSPSSLSASVGDRVTITCRASQDIRSNLNWYQQKPGGAVKLLIYYTSRLHSGVPSRFSGSGSGTDYTLTISSLQPEDFATYFCQQSEKLPRTFGGGTKVEIRRTVAAPSVFIFPPSDEQLKSGTASVVCLLNNFYPREAKVQWKVDNALQSGNSQESVTEQDSKDSTYSLSSTLTLSKADYEKHKVYACEVTHQGLSSPVTKSFNRGEC
notes: copies: 2 + 2
